Experiment [1] addresses T1, human MCP-1/CCL2 (human, UniProt P13500 24-99).
T1 construct: also called Biotin-MCP1
The experiment in a line: ELISA, hybridoma fusion-well supernatant on biotinylated chemokine on streptavidin plate; background approx. 0.150.

The next experiment has as its target T2, human MIP-1β/CCL4 (human, UniProt Q8NHW4 24-92).
T2 construct: also called Biotin-MIP-1β
T2 chain: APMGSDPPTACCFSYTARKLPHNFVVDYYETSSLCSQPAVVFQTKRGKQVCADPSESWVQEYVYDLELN
The description is as above.

Experiment [2] has as its target T3, human RANTES/CCL5 (human, UniProt P13501 24-91).
T3 construct: also called Biotin-RANTES
T3 sequence: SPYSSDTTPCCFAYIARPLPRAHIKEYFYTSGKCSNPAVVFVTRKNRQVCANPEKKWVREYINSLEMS
Described as above.

Experiment [3] addresses T4, human MIP-1α/CCL3 (human, UniProt P10147 24-92).
T4 construct: also called Biotin-MIP-1α
T4 sequence: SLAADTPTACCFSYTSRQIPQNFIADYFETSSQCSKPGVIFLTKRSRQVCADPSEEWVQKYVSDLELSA
Put plainly: BIAcore (SPR). (In general: In SPR one partner is held on a chip, and binding of the other changes the refractive index at the surface.)

Experiment [4] has as its target T4, human MIP-1α/CCL3. Put plainly: cell-based or functional assay.
In experiment [5] the target is T3, human RANTES/CCL5. Put plainly: cell-based or functional assay.
The target of the next experiment is T5, mouse RANTES/CCL5 (mouse, UniProt P30882 24-91).
T5 construct: also called muRANTES
The experiment in a line: MSD electrochemiluminescence, chemokine coated at 1 µg/mL.

Another experiment concerns the target T6, mouse MIP-1α/CCL3 (mouse, UniProt P10855 24-92).
T6 construct: also called muMIP-1α
T6 sequence: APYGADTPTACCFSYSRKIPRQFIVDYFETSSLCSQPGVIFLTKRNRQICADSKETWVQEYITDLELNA
The description is as above.

A further experiment addresses T7, mouse MIP-1β/CCL4 (mouse, UniProt P14097 24-92).
T7 construct: also called muMIP-1β
T7 sequence: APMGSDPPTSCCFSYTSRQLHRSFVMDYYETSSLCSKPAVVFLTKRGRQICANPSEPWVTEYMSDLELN
Described as above.

Experiment [6] addresses T4, human MIP-1α/CCL3. The experiment in a line: ELISA, hybridoma fusion-well supernatant on coated MIP-1α; background approx. 0.150.
In the next experiment the target is T8, human MPIF-1/CCL23 (human, UniProt P55773 46-120).
T8 sequence: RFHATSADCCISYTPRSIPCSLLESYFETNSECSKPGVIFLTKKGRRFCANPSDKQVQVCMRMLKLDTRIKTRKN
Put plainly: MSD electrochemiluminescence assay; chemokine coated at 1 µg/mL, 3C12F at 3 µg/mL; background = BSA.

A further experiment deals with T9, ELC.
T9 construct: also called ELC/MIP-3β/CCL19; CCL19
T9 chemokine: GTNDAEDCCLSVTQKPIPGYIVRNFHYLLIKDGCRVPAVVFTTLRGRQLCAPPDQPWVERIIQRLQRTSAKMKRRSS
The experiment is described as above.

The next experiment deals with T10, human HCC-1/CCL14/CCL14a (human, UniProt Q16627 28-93).
T10 sequence: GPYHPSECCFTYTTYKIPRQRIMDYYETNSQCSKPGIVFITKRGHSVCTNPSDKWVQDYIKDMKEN
The description is as above.

Experiment [7] deals with T1, human MCP-1/CCL2. The experiment is described as above.
In the next experiment the target is T11, MCP-3.
T11 construct: also called MCP-3/CCL7; CCL7
The description is as above.

For another experiment, the target named is T12, IL-8.
T12 construct: also called IL-8/CXCL8; CXCL8
The description is as above.

The target of another experiment is T13, human PARC/CCL18 (human, UniProt P55774 21-89).
T13 sequence: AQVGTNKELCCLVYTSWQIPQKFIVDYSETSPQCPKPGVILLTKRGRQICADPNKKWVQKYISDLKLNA
The description is as above.

For a further experiment, the target named is T14, HCC-4.
T14 construct: also called HCC-4/CCL16; CCL16
T14 chemokine: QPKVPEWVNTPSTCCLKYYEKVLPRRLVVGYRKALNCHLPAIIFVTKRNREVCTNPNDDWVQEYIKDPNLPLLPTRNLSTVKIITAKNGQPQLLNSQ
The experiment is described as above.

The next experiment addresses T15, MDC.
T15 construct: also called MDC/CCL22; CCL22
T15 chemokine: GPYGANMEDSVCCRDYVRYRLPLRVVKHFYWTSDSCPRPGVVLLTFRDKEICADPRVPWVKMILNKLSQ
Described as above.

The next experiment concerns the target T16, human HCC-2/MIP-1δ/CCL15 (human, UniProt Q16663 46-113).
T16 sequence: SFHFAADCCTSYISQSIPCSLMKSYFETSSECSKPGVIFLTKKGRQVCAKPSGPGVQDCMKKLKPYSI
The description is as above.

The target of the next experiment is T17, MCP-4.
T17 construct: also called MCP-4/CCL13; CCL13
The experiment is described as above.

In the next experiment the target is T18, SDF.
T18 construct: also called SDF-1/CXCL12; CXCL12
The description is as above.

The next experiment has as its target T19, I-309.
T19 construct: also called I-309/CCL1; CCL1
T19 chemokine: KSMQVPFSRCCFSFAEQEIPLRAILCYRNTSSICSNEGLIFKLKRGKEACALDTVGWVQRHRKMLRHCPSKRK
The description is as above.

These results are taken from patent publication US20150166647A1 (VLST, published 2015).

T1 sequence (P13500 24-99 limits assumed): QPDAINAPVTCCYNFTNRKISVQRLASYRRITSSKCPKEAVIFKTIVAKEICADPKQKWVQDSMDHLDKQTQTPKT
T17 sequence (chemokine, as listed by the source): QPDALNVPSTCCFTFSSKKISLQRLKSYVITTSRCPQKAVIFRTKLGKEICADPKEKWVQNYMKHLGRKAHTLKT
T18 sequence (chemokine, as listed by the source): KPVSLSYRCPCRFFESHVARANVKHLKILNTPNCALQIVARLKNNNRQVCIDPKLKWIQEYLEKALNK
T12 sequence (chemokine, as listed by the source): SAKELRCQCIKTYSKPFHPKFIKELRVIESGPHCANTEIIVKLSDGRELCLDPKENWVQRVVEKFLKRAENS
T11 sequence (chemokine, as listed by the source): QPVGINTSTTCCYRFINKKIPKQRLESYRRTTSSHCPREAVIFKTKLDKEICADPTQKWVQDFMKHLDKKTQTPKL
T5 sequence (P30882 24-91 limits assumed): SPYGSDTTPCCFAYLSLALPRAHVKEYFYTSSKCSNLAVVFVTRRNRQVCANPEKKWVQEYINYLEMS

B1: monoclonal antibody 3C12F (antibody, V domains shown)
VH: EVQLQQSGAELVKPGASVKLSCTASGFNIKDTYIHWVKQRPEQGLEWIGRIDPANGNTQYDPKFQGKATITADTSSNTAYLQLTSLTSEDTAVYYCARRWDYDYAMDYWGQGTSVTVSS
VL: DIQMTQSPASLSASVGETVTITCRGSGNIHNYLAWYQQKQGKSPQLLVYNAKTLADGVPSRFSGSGSGTQYSLKINSLQPEDFGSYYCQHFWSTPYTFGGGTKLEIK
notes: also called MAb 3C12F
For B1, the ELISA signal in the experiment with human MCP-1/CCL2 [1] is 0.189; with human MIP-1β/CCL4, 1.92; in the experiment with human RANTES/CCL5 [2], 2.61; with human MIP-1α/CCL3 [6], 1.84. Moreover, binding with human MIP-1α/CCL3 [3] was characterised by a dissociation constant (Kd) of 49 nM. The “IC50 of inhibition of chemotaxis (5 ng/mL chemokine)” value with human MIP-1α/CCL3 [4] and with human RANTES/CCL5 [5] was 3 to 5 µg/mL throughout. For the same molecule, the binding result is given as “no binding (tested: 3 µg/mL)” with mouse RANTES/CCL5; “no binding (tested: 3 µg/mL)” in the experiment with mouse MIP-1α/CCL3; “no binding (tested: 3 µg/mL)” with mouse MIP-1β/CCL4; “binds” with human MPIF-1/CCL23; “no binding (tested: 3 µg/mL)” with ELC; “no binding (tested: 3 µg/mL)” with human HCC-1/CCL14/CCL14a. Also, the binding result with human MCP-1/CCL2 [7], with MCP-3, with IL-8, in the experiment with human PARC/CCL18, in the experiment with HCC-4 and with MDC was “no binding (tested: 3 µg/mL)” each time. Besides, the binding result is listed as “binds” in the experiment with human HCC-2/MIP-1δ/CCL15, “no binding (tested: 3 µg/mL)” with MCP-4, “no binding (tested: 3 µg/mL)” with SDF and “no binding (tested: 3 µg/mL)” in the experiment with I-309.
